Experimental data: patent US20090018093
Like-named read-outs stand apart in the source and are kept apart here.

Test system: Immunoglobulin E (IgE) (Homo sapiens), P01854-1
Assay: filter

Sequence of Immunoglobulin E (IgE) (Homo sapiens), P01854-1 (P01854 other isoform, or with tags, fused parts or gaps): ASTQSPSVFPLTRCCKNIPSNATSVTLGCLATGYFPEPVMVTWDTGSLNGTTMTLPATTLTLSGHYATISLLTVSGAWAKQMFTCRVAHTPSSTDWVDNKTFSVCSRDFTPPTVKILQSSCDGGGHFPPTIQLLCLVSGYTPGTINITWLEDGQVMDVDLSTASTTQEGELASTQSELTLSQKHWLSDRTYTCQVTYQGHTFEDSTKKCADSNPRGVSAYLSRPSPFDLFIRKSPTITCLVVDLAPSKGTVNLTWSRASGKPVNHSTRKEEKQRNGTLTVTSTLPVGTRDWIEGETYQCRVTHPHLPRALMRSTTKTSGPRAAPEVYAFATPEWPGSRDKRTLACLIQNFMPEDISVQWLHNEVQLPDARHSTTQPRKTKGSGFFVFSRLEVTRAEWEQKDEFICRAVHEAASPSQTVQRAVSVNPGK

AGCCUGGGGACCCAUGGGGGGCU [ARC3266]
Kd (ARC1666 pattern with 2'-OMe G8 and 2'-OMe I16, 3' idT [inosine (written G) at 16 (2'-OMe I),18,20 (dI), 2'-OMe 1-5,7,8,10-17,22,23, deoxy 6,9,18-21, PS 8/9,15/16,16/17,18/19,20/21, 3' inverted dT left out], dPBS Ca/Mg + BSA, RT): 1.3 nM

AGCCUGGGGACCCAUGGGGGGCU [ARC912]
Kd (dRmY, 7-deaza-dG at G21 [7-deaza-dG: 21, 2'-OMe: 3-5,11-13,15,22,23, deoxy: all A,G], dPBS Ca/Mg + BSA, RT): 9 nM

GGGGCTACTTTATCCGTTCCTCCTAGTGGGTAGCCCC [ARC1401]
Kd (2'-OMe at 1-4,7,33-37, PS 18-19, 3' idT [2'-OMe at 1-4,7,33-37, PS linkage 18-19 (internal N = PS, not a base), 3' inverted dT cap (terminal N, left out)], DPBS Mg/Ca, BSA): 2 nM

GGGGCTACTTTATCCGTTCCTCCTAGTGGGTAGCCCCN [ARC1297]
Kd (2'-OMe at 33, 3' idT, DPBS Mg/Ca, BSA): 0.8 nM

AGCCUGGGGACCCAUGGGGGGCU [ARC1334]
Kd (2'-OMe G2,G7,A10,A14,G17 and all C,U, rest 2'-deoxy, 3' idT [2'-OMe G2,C3,C4,U5,G7,A10,C11,C12,C13,A14,U15,G17,C22,U23, 3' inverted dT at 24], DPBS Mg/Ca, 0.1 mg/mL BSA, RT): 0.3 nM

GGGGCTACTTTATCCGTTCCTCCTAGTGGGTAGCCCCT [ARC1272]
Kd (2'-OMe at 8, 3' idT [8 (2'-OMe C), 38 (3' inverted dT)], DPBS Mg/Ca, BSA): 0.2 nM

GGGAGAGGAGAGAACGUUCUACCCGCAGCAUAGCCUGGGGACCCAUGGGGGGCGCUGUCGAUCGAUCGAUCGAUG [ARC1994]
Kd (dRmY: 2'-deoxy A,G, 2'-OMe C,U, error 5, dPBS Ca/Mg + BSA, RT, 109.7 nM with tRNA + ssDNA competitor (p280)): 5 nM

GGGGCTACTTTATCCGTTCCTCCTAGTGGGTAGCCCCT [ARC1269]
Kd (2'-OMe at 5, 3' idT [5 (2'-OMe C), 38 (3' inverted dT)], DPBS Mg/Ca, BSA): 0.3 nM

GGGAAAAGCGAAUCAUACACAAGACGUGAGCAUAUCAUUGAGUGUAGUGGUUCCGGAGUAAGUCGCUCCGCCAGAGACCAACCGAGAA [rRfY clone SEQ 15]
Kd (2'-F C and U, biphasic, KD2 19.0 nM, 1xSHMCK + tRNA, RT): 0.115 nM

GGGAGAGGAGAGAACGUUCUACAGGCAGUUCUGGGGACCCAUGGGGGAAGUGCGCUGUCGAUCGAUCGAUCGAUG [ARC1991]
Kd (dRmY: 2'-deoxy A,G, 2'-OMe C,U, error 2, dPBS Ca/Mg + 0.1 mg/mL BSA, RT, 87.7 nM with 1 mg/mL tRNA + ssDNA competitor (p280)): 2 nM

GGGCAACTTTATCCGTTCCTCTTAGTGGGTTGCCCC [DNA clone SEQ 139]
Kd: 0.4 nM

GGGGCTACTTTATCCGUTCCTCCTAGTGGGTAGCCCCN [ARC1281]
Kd (2'-OMe U at 17, 3' idT, DPBS Mg/Ca, BSA): 0.1 nM

AGCCUGGGNGACCNCAUNNNGNNGNNGCUN [ARC2979]
Kd (ARC1666 chemistry + PS 12-13, 3' idT, DPBS Mg/Ca, BSA, RT): 0.05 nM

GGGGCTACTTTATCCGTTCCTCCTAGTGGGTAGCCCCN [ARC1283]
Kd (2'-OMe at 19, 3' idT, DPBS Mg/Ca, BSA): 0.6 nM

GGGGCTACTTTATCCGTTCCTCCTAGTGGGTAGCCCC [ARC1398]
Kd (2'-OMe at 1-4,7,33-37, PS 15-16, 3' idT [2'-OMe at 1-4,7,33-37, PS linkage 15-16 (internal N = PS, not a base), 3' inverted dT cap (terminal N, left out)], DPBS Mg/Ca, BSA): 2.7 nM

AGCCUGGGGACCCAUGGGGGGCU [ARC903]
Kd (dRmY (2'-OMe C,U), 7-deaza-dG6 [7-deaza-dG at 6, 2'-OMe C3,C4,U5,C11,C12,C13,U15,C22,U23, A,G 2'-deoxy], DPBS Mg/Ca, 0.1 mg/mL BSA, RT): 14 nM

AGCCUGGGNGACCCAUNNNGNNNGNNGCUN [ARC2982]
Kd (ARC1666 chemistry + PS 17-18, 3' idT, DPBS Mg/Ca, BSA, RT): 0.03 nM

AGCCUGGGNGACCCAUNNNGNNGNNGCUN [ARC3265]
Kd (ARC1666 chemistry with 2'-OMe G8,G9, 3' idT, DPBS Mg/Ca, BSA, RT): 0.29 nM

AGCCUGGGNGACCCAUNNNGNNGNNNGCUN [ARC2983]
Kd (ARC1666 chemistry + PS 19-20, 3' idT, DPBS Mg/Ca, BSA, RT): 0.02 nM

GGGGTATGTTGATCCGTCCCTCCTAGTGGCATGCCCC [DNA clone SEQ 133]
Kd: 0.7 nM

GGAUCCGAGGGUGGGCAAUAGGCUCACAAGGGUCC [rRfY minimer SEQ 94]
Kd (2'-F C and U, KD2 26.5 nM, 1xSHMCK + tRNA): 1.01 nM

AGCCUGGGGACCCAUGGGGGGCU [ARC3270]
Kd (ARC1666 pattern with 2'-OMe G9 and extra PS after G21, C22 and U23, 3' idT [dI (written G) at 16,18,20, 2'-OMe 1-5,7,9,10-15,17,22,23, deoxy 6,8,16,18-21, PS 8/9,15/16,16/17,18/19,20/21,21/22,22/23,23/idT, 3' inverted dT left out], dPBS Ca/Mg + BSA, RT): 0.04 nM

GGGCTACTTTATCCGTTCCTCCTAGTGGGTAGCCCT [ARC1306]
Kd (2'-OMe stem block as printed in Table 18, 3' idT [2'-OMe: stem block (exact positions not given in the material), 36 = 3' inverted dT], DPBS Mg/Ca, BSA): 14 nM

AGCCUGGGNGACCCAUNNNGNNGNNGNCNUNN [ARC3273]
Kd (ARC2342 chemistry with 2'-OMe G8,I16, 3' idT, DPBS Mg/Ca, BSA, RT): 0.86 nM

GGGGCTACTTTATCCGTTCCTCCTAGTGGGTAGCCCC [ARC1396]
Kd (2'-OMe at 1-4,7,33-37, PS 13-14, 3' idT [2'-OMe at 1-4,7,33-37, PS linkage 13-14 (internal N = PS, not a base), 3' inverted dT cap (terminal N, left out)], DPBS Mg/Ca, BSA): 2 nM

GGGAGAGGAGAGAACGUUCUACACUCUGGGGACCCGUGGGGGAGUGCAGCAACGCUGUCGAUCGAUCGAUCGAUG [ARC2005]
Kd (dRmY: 2'-deoxy A,G, 2'-OMe C,U, error 3, dPBS Ca/Mg + BSA, RT): 5 nM

GGGGCTACTTTATCCGTTCCTCCTAGTGGGTAGCCCCT [ARC1299]
Kd (2'-OMe at 35, 3' idT [2'-OMe: 35, 38 = 3' inverted dT], DPBS Mg/Ca, BSA): 0.5 nM

AGCCUGGGGACCCAUGGGGGGCU [ARC905]
Kd (dRmY (2'-OMe C,U), 7-deaza-dG8 [7-deaza-dG at 8, 2'-OMe C3,C4,U5,C11,C12,C13,U15,C22,U23, A,G 2'-deoxy], DPBS Mg/Ca, 0.1 mg/mL BSA, RT): 9 nM

GGGGCTACTTTATCCGTTCCTCCTAGTGGGTAGCCCC [ARC1414]
Kd (2'-OMe at 1-4,7,33-37, PS 31-32, 3' idT [2'-OMe at 1-4,7,33-37, PS 31-32, 3' idT cap after 37 (left out)], DPBS Mg/Ca, BSA): 2.9 nM

GGGGCTACTTTATCCGTTCCTCCTAGTGGGTAGCCCC [ARC1394]
Kd (2'-OMe at 1-4,7,33-37, PS 11-12, 3' idT [2'-OMe at 1-4,7,33-37, PS linkage 11-12 (internal N = PS, not a base), 3' inverted dT cap (terminal N, left out)], DPBS Mg/Ca, BSA): 8.1 nM

AGCCUGGGNGACCCAUNNNGNNGNNGNCUN [ARC2340]
Kd (ARC1666 pattern plus PS between G21 and C22, 3' idT, dPBS Ca/Mg + BSA, RT): 0.08 nM

AGCCUGGGNGACCCAUNNNGNNGNNGNCNUNN [ARC3271]
Kd (ARC2342 chemistry with 2'-OMe I16, 3' idT, DPBS Mg/Ca, BSA, RT): 0.23 nM

GGGGCTACTTTATCCGTTCCTCCTAGTGGGTAGCCCC [ARC1392]
Kd (2'-OMe at 1-4,7,33-37, PS 9-10, 3' idT [2'-OMe at 1-4,7,33-37, PS linkage 9-10 (internal N = PS, not a base), 3' inverted dT cap (terminal N, left out)], DPBS Mg/Ca, BSA): 3 nM

AGCCUGGGGACCCAUGGGGGGCU [ARC1257]
Kd (2'-OMe A14 and all C,U, rest 2'-deoxy, 3' idT [2'-OMe at 3,4,5,11,12,13,14,15,22,23, 3'-idT at 24], DPBS Mg/Ca, 0.1 mg/mL BSA, RT): 6 nM

AGACUGGGGACCCAUGGGGGUCU [ARC1249]
Kd (2'-OMe/2'-deoxy mix, 3:21 pair changed, DPBS Mg/Ca, 0.1 mg/mL BSA, RT): 130 nM

AGCCUGGGGACCCAUGGGGGGCU [ARC1548]
Kd (ARC1335 chemistry with dI2, 3' idT [2=dI (G parent), 24=3' inverted dT], DPBS Mg/Ca, 0.1 mg/mL BSA, RT): 3.3 nM

AGCNCUGGGNGACCCAUNNNGNNGNNGCUN [ARC2971]
Kd (ARC1666 chemistry + PS 3-4, 3' idT, DPBS Mg/Ca, BSA, RT): 0.06 nM

GGAAUCAUACACAAGACGUCGCCAGAUUGAGUGUCGUGGUU [rRfY minimer SEQ 92]
Kd (2'-F C and U, KD2 22.0 nM, 1xSHMCK + tRNA): 0.25 nM

ANGCCUGGGNGACCCAUNNNGNNGNNGCUN [ARC2969]
Kd (ARC1666 chemistry + PS 1-2, 3' idT, DPBS Mg/Ca, BSA, RT): 0.09 nM

GGGGCTACTTTATCCGTTCCTCCTAGTGGGTAGCCCC [ARC1408]
Kd (2'-OMe at 1-4,7,33-37, PS 25-26, 3' idT [2'-OMe at 1-4,7,33-37, PS 25-26, 3' idT cap after 37 (left out)], DPBS Mg/Ca, BSA): 1 nM

GGGGCTACTTTATCCGTTCCTCCTAGTGGGTAGCCCCT [ARC1300]
Kd (2'-OMe at 36, 3' idT [2'-OMe: 36, 38 = 3' inverted dT], DPBS Mg/Ca, BSA): 0.7 nM

AGCCUGGGGACCCAUGGGGGGCU [ARC1259]
Kd (2'-OMe G17 and all C,U, rest 2'-deoxy, 3' idT [2'-OMe at 3,4,5,11,12,13,15,17,22,23, 3'-idT at 24], DPBS Mg/Ca, 0.1 mg/mL BSA, RT): 5 nM

GGGGCACATTTATCCGTCCCTCCTAGTGGTGTGCCCC [DNA clone SEQ 119]
Kd: 0.6 nM

GGGGCTACTTTATCCGTTCCTCCTAGTGGGTAGCCCCT [ARC1265]
Kd (2'-OMe at 1, 3' idT [1=2'-OMe G, 38=3' inverted dT], DPBS Mg/Ca, BSA): 0.2 nM

GGGGCTACTTTATCCGTTCCTCCTAGTGGGTAGCCCCT [ARC1301]
Kd (2'-OMe at 37, 3' idT [2'-OMe: 37, 38 = 3' inverted dT], DPBS Mg/Ca, BSA): 0.5 nM

GGGGCTACTTTATCCGTTCCTCCTAGTGGGTAGCCCC [ARC1399]
Kd (2'-OMe at 1-4,7,33-37, PS 16-17, 3' idT [2'-OMe at 1-4,7,33-37, PS linkage 16-17 (internal N = PS, not a base), 3' inverted dT cap (terminal N, left out)], DPBS Mg/Ca, BSA): 1.8 nM

GGGAGAGGAGAGAACGUUCUACGCAGCGCAUCUGGGGACCCAAGAGGGGAUUCGCUGUCGAUCGAUCGAUCGAUG [ARC2001]
Kd (dRmY: 2'-deoxy A,G, 2'-OMe C,U, error 0.1, dPBS Ca/Mg + BSA, RT): 18 nM

GGGGCUACTTUATCCGUUCCTCCTAGTGGGTAGCCCC [ARC1390]
Kd (2'-OMe at 1-8,11,17,18,20,33-37, 3' idT [2'-OMe: 1-8,11,17,18,20,33-37, 38 = 3' inverted dT], DPBS Mg/Ca, BSA): 17 nM
